The series has as its target T1, 19-mer (SEQ ID NO:11) cleavage domain peptide.
T1 chain: PRCGNPDVANYNFFPRKPK

The values that follow come from patent US20040259802.

B1: Proenzyme pro-MMP-9 (protein)
chain: APRQRQSTLVLFPGDLRTNLTDRQLAEEYLYRYGYTRVAEMRGESKSLGPALLLLQKQLSLPETGELDSATLKAMRTPRCGVPDLGRFQTFEGDLKWHHHNITYWIQNYSEDLPRAVIDDAFARAFALWSAVTPLTFTRVYSRDADIVIQFGVAEHGDGYPFDGKDGLLAHAFPPGPGIQGDAHFDDDELWSLGKGVVVPTRFGNADGAACHFPFIFEGRSYSACTTDGRSDGLPWCSTTANYDTDDRFGFCPSERLYTQDGNADGKPCQFPFIFQGQSYSACTTDGRSDGYRWCATTANYDRDKLFGFCPTRADSTVMGGNSAGELCVFPFTFLGKEYSTCTSEGRGDGRLWCATTSNFDSDKKWGFCPDQGYSLFLVAAHEFGHALGLDHSSVPEALMYPMYRFTEGPPLHKDDVNGIRHLYGPRPEPEPRPPTTTTPQPTAPPTVCPTGPPTVHPSERPTAGPTGPPSAGPTGPPTAGPSTATTVPLSPVDDACNVNIFDAIAEIGNQLYLFKDGKYWRFSEGRGSRPQGPFLIADKWPALPRKLDSVFEERLSKKLFFFSGRQVWVYTGASVLGPRRLDKLGLGADVAQVTGALRSGRGKMLLFSGRRLWRFDVKAQMVDPRSASEVDRMFPGVPLDTHDVFQYREKAYFCQDRFYWRVSSRSELNQVDQVGYVTYDILQCPED
As to B1, the “conversion of pro-MMP-9 into prodomain and active enzyme by stromilysin (HPLC splicing assay)” value was “Titrating the standard splicing reaction with the 19-mer (SEQ ID NO:11) peptide prevents the conversion of pro-MMP-9 into the prodomain and the active enzyme. Splicing can be inhibited in a dose dependent manner with micromolar 19-mer”.
